± gives the standard deviation.
Assay: protein stability index of a GFP-peptide fusion (GPS, HEK-293T) (PSI 1-6); higher = more stable
Details: c terminus: a fixed tail appended
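Note: 24-mer peptide tiles fused after GFP, lentivirally expressed, FACS-sorted into six equal bins by GFP/DsRed ratio, decoded by Illumina sequencing, PSI is the read-weighted mean bin number.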

Sequence: GYLIKILTNSNLPEEELDFFEILR [CNOT7]
- protein stability index (treatment: DMSO): 2.15 ± 0.25
- protein stability index (treatment: MLN4924 1 uM, 8 h): 2.23 ± 0.3

Sequence: DEVQIGPETVMTTLYTAKKYAVPA [BTBD1]
- protein stability index (treatment: DMSO): 3.67 ± 0.32
- protein stability index (treatment: MLN4924 1 uM, 8 h): 3.55 ± 0.41

Sequence: TSECPSDKDKSPESHKAKNESWIK [C10orf62]
- protein stability index (treatment: DMSO): 3.58 ± 0.65
- protein stability index (treatment: MLN4924 1 uM, 8 h): 4.18 ± 0.7

Sequence: LEKDTMDNWDEKKLEEVVNKKHGE [ZC3H15]
- protein stability index (treatment: DMSO): 5.54 ± 0.095
- protein stability index (treatment: MLN4924 1 uM, 8 h): 5.46 ± 0.19

Sequence: GTGLVLDEQLNEFHCLWDDSFPEG [HDAC6]
- protein stability index (treatment: DMSO): 4.12 ± 0.34
- protein stability index (treatment: MLN4924 1 uM, 8 h): 3.96 ± 0.16

Sequence: DGTGASQEPPTTDSQEAQSPGHSS [TOR1AIP2]
- protein stability index (treatment: DMSO): 5.56 ± 0.26
- protein stability index (treatment: MLN4924 1 uM, 8 h): 5.54 ± 0.24

Sequence: LNEMRDQYEKMAEKNRKDAEDWFF [KRT17]
- protein stability index (treatment: DMSO): 4.14 ± 0.2
- protein stability index (treatment: MLN4924 1 uM, 8 h): 4.1 ± 0.19

Sequence: FGSSVPEKQSRCVNIEWHRFRFGQ [WSB1]
- protein stability index (treatment: DMSO): 2.07 ± 0.34
- protein stability index (treatment: MLN4924 1 uM, 8 h): 2.12 ± 0.24

Sequence: DMSIGGNLSKTQNMERFGEDNLED [CDC14A]
- protein stability index (treatment: DMSO): 5.27 ± 0.14
- protein stability index (treatment: MLN4924 1 uM, 8 h): 5.34 ± 0.21

Sequence: ISEAFSQRVGFGDDFDEDELMAEL [CHMP4C]
- protein stability index (treatment: DMSO): 4.86 ± 0.32
- protein stability index (treatment: MLN4924 1 uM, 8 h): 5.07 ± 0.2

Sequence: LQAIKAAIMLLPDENREVLQTLLY [DLC1]
- protein stability index (treatment: DMSO): 2.23 ± 0.42
- protein stability index (treatment: MLN4924 1 uM, 8 h): 2.22 ± 0.16

Sequence: DYSASEYRWHINFTTFFIDCMAAL [SCD]
- protein stability index (treatment: DMSO): 2.54 ± 0.17
- protein stability index (treatment: MLN4924 1 uM, 8 h): 2.63 ± 0.47

Sequence: SRVMFLLVDKETDKRHVEQKIQFK [PDZK1]
- protein stability index (treatment: DMSO): 2.62 ± 0.32
- protein stability index (treatment: MLN4924 1 uM, 8 h): 2.88 ± 0.26

Sequence: KKKTKVLKQRTVIEMFKSITHSTV [EHMT1]
- protein stability index (treatment: DMSO): 2.44 ± 0.35
- protein stability index (treatment: MLN4924 1 uM, 8 h): 2.19 ± 0.47

Sequence: ENQRENLEQPFLSVFKKGRRRVPV [PLEKHN1]
- protein stability index (treatment: DMSO): 3.31 ± 0.4
- protein stability index (treatment: MLN4924 1 uM, 8 h): 3.46 ± 0.18

Sequence: SSDPFYTPEPDTCHELLGHVPLLA [TPH1]
- protein stability index (treatment: DMSO): 3.17 ± 0.35
- protein stability index (treatment: MLN4924 1 uM, 8 h): 3.31 ± 0.15

Sequence: PGAPRGNPPKASAAPDCTPSLEAG [MYCL]
- protein stability index (treatment: DMSO): 5.28 ± 0.34
- protein stability index (treatment: MLN4924 1 uM, 8 h): 5.36 ± 0.17

Sequence: RTLPNASTVDNIRSIFGNAVSREL [MLH1]
- protein stability index (treatment: DMSO): 3.55 ± 0.12
- protein stability index (treatment: MLN4924 1 uM, 8 h): 3.54 ± 0.17

Sequence: NKGTETDNDPSCVHPIIKRRQCRP [PHTF1]
- protein stability index (treatment: DMSO): 4.88 ± 0.085
- protein stability index (treatment: MLN4924 1 uM, 8 h): 4.81 ± 0.21

Sequence: AFLKLAKQRSVCTWGKNKPGIGAV [FAN1]
- protein stability index (treatment: DMSO): 2.76 ± 0.4
- protein stability index (treatment: MLN4924 1 uM, 8 h): 2.3 ± 0.48

Sequence: PSGHSDAQTLAMMLQEQLDAINEE [PPFIA4]
- protein stability index (treatment: DMSO): 4.94 ± 0.44
- protein stability index (treatment: MLN4924 1 uM, 8 h): 4.46 ± 0.21

Sequence: FIEALIQQYQEQLDKSTKLVETAI [TRIM63]
- protein stability index (treatment: DMSO): 2.66 ± 0.52
- protein stability index (treatment: MLN4924 1 uM, 8 h): 2.14 ± 0.39

Sequence: AEYYRLHLEGYHGTAGDSMSYHSG [TNXB]
- protein stability index (treatment: DMSO): 3.09 ± 0.83
- protein stability index (treatment: MLN4924 1 uM, 8 h): 2.96 ± 0.43

Sequence: LVHVMERSLSPSLSSVDMRMTSSP [RAD54B]
- protein stability index (treatment: DMSO): 2.51 ± 0.34
- protein stability index (treatment: MLN4924 1 uM, 8 h): 2.58 ± 0.36

Sequence: LSQALNGLSDRAKEAKEFLVQLRN [TRIM9]
- protein stability index (treatment: DMSO): 3.29 ± 0.41
- protein stability index (treatment: MLN4924 1 uM, 8 h): 3.26 ± 0.32

Sequence: FFPWREAKPGSTEKGLPLRKTHVL [MFSD9]
- protein stability index (treatment: DMSO): 2.72 ± 0.28
- protein stability index (treatment: MLN4924 1 uM, 8 h): 2.82 ± 0.076

Sequence: HMFVWGGYKSNQVRGLYDFYLPRE [KLHDC2]
- protein stability index (treatment: DMSO): 2.24 ± 0.26
- protein stability index (treatment: MLN4924 1 uM, 8 h): 2.19 ± 0.5

Sequence: SLAQGPDAATTDELSSLGSDSEAN [TBC1D10A]
- protein stability index (treatment: DMSO): 5.56 ± 0.19
- protein stability index (treatment: MLN4924 1 uM, 8 h): 5.5 ± 0.18

Sequence: LIESEAPPKASEQETAKEEDGSVE [C18orf25]
- protein stability index (treatment: DMSO): 5.59 ± 0.31
- protein stability index (treatment: MLN4924 1 uM, 8 h): 5.77 ± 0.26

Sequence: STDDFFFREDGAYEFNPDFLEEAH [N4BP2L1]
- protein stability index (treatment: DMSO): 4.99 ± 0.34
- protein stability index (treatment: MLN4924 1 uM, 8 h): 4.89 ± 0.17

Sequence: SGDRDENSFSLNSSISSSARRTTR [MAP2]
- protein stability index (treatment: DMSO): 5.05 ± 0.28
- protein stability index (treatment: MLN4924 1 uM, 8 h): 4.97 ± 0.32

Sequence: AALLQLVRRLQALRLEREEYVLLK [ESRRA]
- protein stability index (treatment: DMSO): 2.19 ± 0.37
- protein stability index (treatment: MLN4924 1 uM, 8 h): 1.95 ± 0.18

Sequence: KDAYVQKLVKVCNGHDCWSLISLS [TENT5D]
- protein stability index (treatment: DMSO): 2.43 ± 0.41
- protein stability index (treatment: MLN4924 1 uM, 8 h): 2.14 ± 0.26

Sequence: TLGGKAFHITNDEPIPFWTFLSRI [NSDHL]
- protein stability index (treatment: DMSO): 2.19 ± 0.096
- protein stability index (treatment: MLN4924 1 uM, 8 h): 2.28 ± 0.22

Sequence: AYTQTQFHNLRNTLDGYGIHPKSI [NFE2L1]
- protein stability index (treatment: DMSO): 2.57 ± 0.3
- protein stability index (treatment: MLN4924 1 uM, 8 h): 2.34 ± 0.26

Sequence: RARDSPEPGAGLGIGDMAFEGDMG [PSD2]
- protein stability index (treatment: DMSO): 4.73 ± 0.13
- protein stability index (treatment: MLN4924 1 uM, 8 h): 4.91 ± 0.15

Sequence: ELETVDFKDKLEETKGQINNSIKD [SERPINB5]
- protein stability index (treatment: DMSO): 5.29 ± 0.46
- protein stability index (treatment: MLN4924 1 uM, 8 h): 5.51 ± 0.12

Sequence: RKLNSRLFVIRGQPADVFPRLFKE [CRY1]
- protein stability index (treatment: DMSO): 2.27 ± 0.38
- protein stability index (treatment: MLN4924 1 uM, 8 h): 2.09 ± 0.39

Sequence: WGEGLHQLREALKILAERVLILET [EMID1]
- protein stability index (treatment: DMSO): 2.47 ± 0.24
- protein stability index (treatment: MLN4924 1 uM, 8 h): 2.78 ± 0.31

Sequence: LRHFFLVEDLVDSLKLALLFYILT [RTN2]
- protein stability index (treatment: DMSO): 2.79 ± 0.79
- protein stability index (treatment: MLN4924 1 uM, 8 h): 2.45 ± 0.15

Sequence: LRGGGQVLLGWTLHYFPFFLMGRV [POMT2]
- protein stability index (treatment: DMSO): 3.01 ± 0.44
- protein stability index (treatment: MLN4924 1 uM, 8 h): 2.99 ± 0.37

Sequence: EHSWIKAIRRRNVRGEDSGRKPER [DAPK3]
- protein stability index (treatment: DMSO): 3.62 ± 1.7
- protein stability index (treatment: MLN4924 1 uM, 8 h): 4.07 ± 0.23

Sequence: EERAKAKHLARQLEEKDRVLKKQD [CHCHD3]
- protein stability index (treatment: DMSO): 5.51 ± 0.14
- protein stability index (treatment: MLN4924 1 uM, 8 h): 5.42 ± 0.16

Sequence: KSMGLKKKAFVWARNIGFKVNSKK [ACSBG2]
- protein stability index (treatment: DMSO): 2.91 ± 0.3
- protein stability index (treatment: MLN4924 1 uM, 8 h): 2.83 ± 0.37

Sequence: RDFDNNTPLHIAAQNNCPAIMNAL [FEM1A]
- protein stability index (treatment: DMSO): 3.36 ± 0.3
- protein stability index (treatment: MLN4924 1 uM, 8 h): 3.46 ± 0.41

Source: the supplement of paper PMC10567573
